Ki data for eight substances are collected here from article doi:10.1101/2022.03.25.485857.

In this assay the target is human α-thrombin (human). Briefly: enzyme inhibition.
Substance “chimadanin sulfated at both Tyr28 and Tyr31 (natural protein)” yielded a Ki of 0.1 nM. “chimadanin with a single sTyr at Tyr28 (natural protein)” had an inhibition constant (Ki) of 0.6 nM.

In turn, “chimadanin with a single sTyr at Tyr31 (natural protein)” came in with a Ki of 1.5 nM. The substance “madanin-1 sulfated at both Tyr32 and Tyr35 (natural protein)” displayed an inhibition constant (Ki) of 0.5 nM. As for “madanin-1 with a single sTyr at Tyr32 (natural protein)”, the Ki was 1.3 nM. Then “madanin-1 with a single sTyr at Tyr35 (natural protein)”, with 6.1 nM. Then wildtype chimadanin (natural protein), with 12.9 nM. Substance wildtype madanin-1 (natural protein) yielded a Ki of 16 nM.
